Laboratory results as given in patent US20120219562A1 (AbbVie / Abbott, published 2012).
“And” between values parts separate entries of the source, which are not always exact repeats. Equal values may be shown once. Values belong to the binder of their own block, whether it stands above or below them.

What was measured:
[1] = target: T1, human interleukin 12 (recombinant human IL-12, p70 heterodimer) (human, UniProt P29459 23-219; P29460 23-328); experiment: cell-based or functional assay
T1 sequence (looked up) 1: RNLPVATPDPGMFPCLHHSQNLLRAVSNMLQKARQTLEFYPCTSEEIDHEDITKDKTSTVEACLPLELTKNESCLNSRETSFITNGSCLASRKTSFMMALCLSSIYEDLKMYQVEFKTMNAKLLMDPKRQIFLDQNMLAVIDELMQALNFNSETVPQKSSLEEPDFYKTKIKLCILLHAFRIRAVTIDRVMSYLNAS
T1 sequence (looked up) 2: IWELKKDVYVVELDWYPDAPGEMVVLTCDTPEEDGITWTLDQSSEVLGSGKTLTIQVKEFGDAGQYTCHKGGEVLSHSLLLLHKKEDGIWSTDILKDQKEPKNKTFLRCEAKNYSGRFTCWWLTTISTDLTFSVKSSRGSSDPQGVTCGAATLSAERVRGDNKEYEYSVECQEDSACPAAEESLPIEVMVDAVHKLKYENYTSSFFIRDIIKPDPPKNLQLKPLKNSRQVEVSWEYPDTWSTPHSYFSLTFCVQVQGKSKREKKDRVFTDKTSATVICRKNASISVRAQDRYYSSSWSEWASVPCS

[2] = target: T1, human interleukin 12 (recombinant human …); experiment: SPR (BIAcore), off-rate from human IL-12
[3] = target: T1, human interleukin 12 (recombinant human …); experiment: RB assay: inhibition of IL-12 binding to its receptor
[4] = target: T2, human interleukin 12 (p70 heterodimer of p35 and p40) (human, UniProt P29459 23-219; P29460 23-328); experiment: surface plasmon resonance (BIAcore)
T2 construct: Recombinant human IL-12; also called hIL-12; IL-12
T2 sequence (looked up) 1: T1 sequence (looked up) 1
T2 sequence (looked up) 2: T1 sequence (looked up) 2

[5] = target: T2, human interleukin 12 (p70 heterodimer …); experiment: SPR (BIAcore), off-rate
[6] = target: T2, human interleukin 12 (p70 heterodimer …); experiment: SPR (BIAcore), off-rate; remark: listed apart in the source
[7] = target: T2, human interleukin 12 (p70 heterodimer …); experiment: SPR (BIAcore), off-rate; remark: listed apart in the source
[8] = target: T2, human interleukin 12 (p70 heterodimer …); experiment: SPR (BIAcore), off-rate; remark: listed apart in the source
[9] = target: T2, human interleukin 12 (p70 heterodimer …); experiment: SPR (BIAcore), off-rate; remark: listed apart in the source
[10] = target: T2, human interleukin 12 (p70 heterodimer …); experiment: SPR (BIAcore), off-rate; remark: listed apart in the source
[11] = target: T2, human interleukin 12 (p70 heterodimer …); experiment: SPR (BIAcore), off-rate; remark: listed apart in the source

IFN gamma IC50 [1]: 0.04 nM
PHA assay IC50 [1]: 0.05 nM
koff [2]: 0.000127 s⁻¹
IC50 [3]: 0.06 nM
B1: Y61-L94Y IgG (antibody, V domains shown)
VH: QVQLVQSGGGVVQPGRSLRLSCAASGFTFSSYGMHWVRQAPGKGLEWVAFIRYDGSNKYYADSVKGRFTISRDNSKNTLYLQMKSLRAEDTAVYYCKTHGSHDNWGQGTMVTVSS
VL: QSVLTQPPSVSGAPGQRVTISCSGSRSNIGSNTVKWYQQLPGTAPKLLIYGNDQRPSGVPDRFSGSKSGTSASLAITGLQAEDEADYYCQSYDRYTHPALLFGTGTKVTVL

koff [4]: ~0.0002 s⁻¹
koff [5]: 0.000168 s⁻¹ and 0.000337 s⁻¹ and 0.000178 s⁻¹
koff [6]: 0.000204 s⁻¹ and 0.000206 s⁻¹ and 0.000151 s⁻¹ and 0.000178 s⁻¹
koff [7]: 0.00031 s⁻¹ and 0.000385 s⁻¹
koff [8]: 0.000397 s⁻¹ and 0.000375 s⁻¹ and 0.000255 s⁻¹ and 0.000143 s⁻¹
koff [9]: 0.000403 s⁻¹
koff [10]: 0.000211 s⁻¹ and 0.000229 s⁻¹ and 0.000241 s⁻¹
koff [11]: 0.000215 s⁻¹ and 0.000297 s⁻¹
B2: Y61 human anti-hIL-12 antibody (antibody, V domains shown)
VH: B1 VH
VL: SYVLTQPPSVSGTPGQRVTISCSGGRSNIGSNTVKWYQQLPGTAPKLLIYGNDQRPSGVPDRFSGSKSGTSASLAITGVQAEDEADYYCQSYDRGTHPALLFGTGTKVTVLG
